# Measurements published in the DeepSol protein solubility set.
# Experiment: soluble on expression in E. coli; label from the status in PepcDB or PDB records
row,Sequence,soluble on expression in E. coli
1,MSQANRTNGLVDYKELETNILSSIQEGKPLTGRDGALTPFIKRLLEASLEGEIESHMSAKSEENNRRNGRNAKTLRTSAGSFELLTPRDREGNFEPQIVKKRQTSLHPELEAKVLSTYASGMGYRDIASHVEEIYDHKISAAEISSITDKLLPIINEWRSRPLQSVYPIVFMDGMFFKVKEDGHCVSKCMYNILGINQNGRKEVLGFYLAESEGATFWLGVLNDLKERGVEDILIACIDGLKSFPTAINSVFPSAEVQLCIVHQIRNSLKYVSSKDVKVFMNDLKKIYRASSKEIAENYLLELEEKWGEKYPLVIKSWQNNWENLSSYFKYSGPVRKLIYTTNPIEGLHRQIRKFTKTKGSFTSTNALYKQVYCAIKKVEQKWIMALPNWALTMSQLDIFFPGRLKIELN,soluble
2,MSQEIYDYANQLERAVRALPEYQKVLEVKEAIQADVSASELFDEFVAMQEKIQGMMQSGQMPTAEEQTSIQELSQKIEANDQLKAYFEAQQALSVYMSDIERIVFAPLKDLVK,not soluble
3,MSQHNEKNPHQHQSPLHDSSEAKPGMDSLAPEDGSHRPAAEPTPPGAQPTAPGSLKAPDTRNEKLNSLEDVRKGSENYALTTNQGVRIADDQNSLRAGSRGPTLLEDFILREKITHFDHERIPERIVHARGSAAHGYFQPYKSLSDITKADFLSDPNKITPVFVRFSTVQGGAGSADTVRDIRGFATKFYTEEGIFDLVGHNTPIFFIQDAHKFPDFVHAVKPEPHWAIPQGQSAHDTFWDYVSLQPETLHNVMWAMSDRGIPRSYRTMEGFGIHTFRLINAEGKATFVRFHWKPLAGKASLVWDEAQKLTGRDPDFHRRELWEAIEAGDFPEYELGFQLIPEEDEFKFDFDLLDPTKLIPEELVPVQRVGKMVLNRNPDNFFAENEQAAFHPGHIVPGLDFTNDPLLQGRLFSYTDTQISRLGGPNFHEIPINRPTCPYHNFQRDGMHRMGIDTNPANYEPNSINDNWPRETPPGPKRGGFESYQERVEGNKVRERSPSFGEYYSHPRLFWLSQTPFEQRHIVDGFSFELSKVVRPYIRERVVDQLAHIDLTLAQAVAKNLGIELTDDQLNITPPPDVNGLKKDPSLSLYAIPDGDVKGRVVAILLNDEVRSADLLAILKALKAKGVHAKLLYSRMGEVTADDGTVLPIAATFAGAPSLTVDAVIVPCGNIADIADNGDANYYLMEAYKHLKPIALAGDARKFKATIKIADQGEEGIVEADSADGSFMDELLTLMAAHRVWSRIPKIDKIPA,soluble
4,MSQLSFADVFNMAREAADNSPVIQAGQQIAEMVPTVQRMMSEQYSRSRFIRVFKDTGRHLGRWEVFSDFLSLAASELDMARIRTPESMENCRKICARYGATDIANMQEMFCLMVCALEAKFHDFLGAIFMELELGDNFRGQYFTPYSVQCLMARMLMPGVRDTIRREGIATVSDPACGAAGMLIAYAECLLEADINPSMHMFGSCIDIDPVAADMAFIQLSLLGIAAEVVTGNTLTMQYRRVRYTPVYYLNAFEKRLADLRRFRAMRDFLRGIQEAA,not soluble
5,MSQPCPHCGFQFNCICSLVPKLTSKHEILLLMHPNELTRDTNTGQLLQHCQLNVEQAIWDRKQPPAELLTRLANPSLYPVILFPSEESITLEHVEMQSQQQAKMPLYIILDATWQEARKMINKSRWLEGIPTMGLSALADSQYQLRRNQQQGNLCTFEVAAHLLGQLGEQDNQQQMHTFFTHYLALFQAEKSGHALKSSPRSLEAAALEHHHHHH,not soluble
6,MSQQHDYVIGKNAVIETLKSDRKLYKLWMAENTVKGQAQQVIELAKKQGITIQYVPRKKLDQMVTGQHQGVVAQVAAYEYAELDDLYKAAEEKNEQPFFLILDELEDPHNLGSIMRTADAVGAHGIVIPKRRAVGLTTTVAKASTGAIEHIPVARVTNLARTLEEMKERGIWVVGTDASAREDFRNMDGNMPLALVIGSEGKGMGRLVKEKCDFLIKLPMAGKVTSLNASVAAGLLMYEVYRKRNPVGE,not soluble
7,MSQSNLIQTDRFVLSETERSSIEHEMHHYEDPRAASIEALKIVQKQRGWVPDGAIPAIGEVLGIPASDVEGVATFYSQIFRQPVGRHIIRVCDSMVCYIGGHESVVGEIQKQLGIGLGQTTADGRFTLLPVCCLGNCDKAPALMIDDDTHGDVRPDGVAKLLEAYV,not soluble
8,MSQSRDLQGGKAFGLLKAQQEERLEGINKQFLDDPKYSNDEDLPSKLEAFKVKYMEFDLNGNGDIDIMSLKRMLEKLGVPKTHLELKRLIREVSSGSEETFSYSDFLRMMLGKRSAILRMILMYEEKNKEHKRPTGPPAKKAISELP,soluble
9,MSQTITVKVKLLPTKEQIQLLEQSSYEYIKVINTLVSEMAEAKKSTKKSTKDVEANLPSAVKNQAIKDAKSVFSTKVKKSKYKVIPILKRPVCVWNNQNYSFDFTHISVPLMVNGKSTRLKVRALLTDKYNRNFNLLTHKLGTLRITKKSNKWIAQISVTIPTNEKTGTKILGVDLGLKVPAVAITDDEKVRFFGNGRQNKYMKRKFRSVRKKLGENKKLNAIRQLDDKEQRWMQDQDHKVSREIIDFATDNNISVIRLEQLTNIRQTARTSRKNEKNLHTWSFYRLAQFIEYKANLVGIKVEYVNPAYTSQTCPKCSEKNKAPDRKYKCRCGFEKHRDIVGAMNIRYATVIDGNSQSALEHHHHHH,soluble
10,MSRFRSLLQASVNATKKALTWNVEEWVPPAEKHIFKFHSKEDLKKWHLYSDSEYGGLSSASLEIPDKGDGSDCTGVFSGNLSVDLSEGSKWNISRSGFCGMRSKKFDGFIDLDGYDAIALRIRGDGRCYISTIYTENWVNSPGQSEDNSWQAFVFAPKDSWYTAKIPLARYLPTWRGNVIDVEMEMNPGRVLGMSLSVNAEGGAVGAKSGAGDFRVEIDWIKALRLP,soluble
11,MSRLEIYSPEGLRLDGRRWNELRRFESSINTHPHAADGSSYMEQGNNKIITLVKGPKEPRLKSQMDTSKALLNVSVNINKFSKFERSKSSHKNERRVLEIQTSLVRMFEKNVMLNIYPRTVIDIEIHVLEQDGGIMGSLINGITLALIDAGISMFDYISGISVGLYDTTPLLDTNSLEENAMSTVTLGVVGKSEKLSLLLVEDKIPLDRLENVLAIGIAGAHRVRDLMDEELRKHAQKRVSNASAR,soluble
12,MSRLSSLLILVCIGALLVETFAAPDEPIIVRSKRQQCRCVKNPNGGLTCSCAKGPADGSSSSIGSGVQYDAPQSADIANQLTAMSQQTTGMSGARCGCIQIVIQGAPQYNCQCGDQSGNPLPTTTTMAPTTSSTTTTTTTTTQAPTTTSTTTTQSPVSYPQVPTQTQGSNGACNCIMISITSPQTAQYQCQCAQPQQQQQQQVQYDTYEYAPVQTTPTPMPTTQVPTTQAPTTQAPTMPTSSSPVQYADTAATQYPLTTTCVMYVNVPTTACSCLPQYDQCAQNVCCLKSKFRSYKKAEETQPSTLDVLMNVLQTIKTKLE,not soluble
13,MSRLVLLISLVIVVASAAAPQCEVCKKVLDDVMAKVPAGDKSKPDAIGKVIREHCETTRNKENKFCFYIGALPESATSIMNEVTKPLSWSMPTEKVCLEKLKGKDAQICELKYDKPLDWKTIDLKKMRVKELKNILGEWGEVCKGCTEKAELIKRIEELKPKYVKEEL,not soluble
14,MSRNQIYITQEQFDFFCQTQRPYEGFVEGVGYAFVHRGFVNPHANRPTNPFRQTKGYVLPFKQQLIEVSPDLIANSLKCNKTTDTPQEAPERDSRYLGERFYTKDGRYVYIGTMSGGWVCYDRSGNRILEQLPEIIVYSSKEPGRSIIGTGKD,not soluble
15,MSRNVGVLGQMSEINDHLYLSGAGVLKPDKIKQRKINMIVNATTEEPSTYMQGVDTMKIRIEDHPYARLNEHFDVVADKIRNVKERGGKTLVHCMAGVSRSASLVMIYLVKHEHMTLRQAYHYVKAARPIIRPNVGFWKQMVDYEKRLRGTASVKMVQTPECDMPIPDVYADDIRRMQINREISRHSLPSAQSSASKQRAFSASTYRPSVSSASSLATSSLRRAYSPSSLPASSLALTTSYSLFSPAPTRKPRQSLFSMYSTSPRHNFFSAF,not soluble
16,MSRQAKDDFLRHYTVSDPRTHPKGYTEYKVTAQFISKKDPEDVKEVVVWKRYSDFRKLHGDLAYTHRNLFRRLEEFPAFPRAQVFGRFEASVIEERRKGAEDLLRFTVHIPALNNSPQLKEFFRGGEVTRPLEVSRDLHILPPPLIPTPPPDDPRLSQLLPAERRGLEELEVPVDPPPSSPAQEALDLLFNCESTEEASGSPARGPLTEAELALFDPFSKEEGAAPSPTHVAELATMEVESARLDQEPWEPGGQEEEEDGEGGPTPAYLSQATELITQALRDEKAGAYAAALQGYRDGVHVLLQGVPSDPLPARQEGVKKKAAEYLKRAEEILRLHLSQLPP,soluble
17,MSRRASKRPAPYPLLCEQKPEDLLVAPVEHKVYQDFEPKRPREFSPVMAQSLPPGEIDFQPSKIIFNAPYNENQESKIKLINTSALRIAYGINTYMKRLRVDTMCTPNCGVLDPSEEILLTISCDAFAFGQVDTTNDRITVEWTNTSEGSTKQFCRDWLDGDGMVRRKTLPIEYSSSPIAQTSSAPLLQASKHGMWLPIGFAASELYDYAKGEPLDRKTCEKNLEKLIKNDRDVDYYEWLNFAKRCRTQNQNLMEEMALGMAFTTAMANKQHRKISRKAEKITEPITTNKAFSIDSAEKFDRALTLPSRKWFMISDVVTDGDVSNWSTANLVTLVRALARTVFDKVAIADPHMMCYATSQNASTYIPIARDFFEGFAEYILGGFGEEQSRDLKFRVRKLVTDVMGNKLDRVRGRHNKMYGNEASEDATRWLREQLRKEDGELKESRLIFPNGSEMMCNYQVNEENPEGSIKSEIFNDEEEVEME,not soluble
18,MSRVPEPSVFLVVDEAKRKARERGVGLIDLSIGSTDLPPPEAPLKALAEALNDPTTYGYCLKSCTLPFLEEAARWYEGRYGVGLDPRREALALIGSQEGLAHLLLALTEPEDLLLLPEVAYPSYFGAARVASLRTFLIPLREDGLADLKAVPEGVWREAKVLLLNYPNNPTGAVADWGYFEEALGLARKHGLWLIHDNPYVDQVYEGEAPSPLALPGAKERVVELFSLSKSYNLAGFRLGFALGSEEALARLERVKGVIDFNQYAGVLRMGVEALKTPKEVVRGYARVYRERALGMAEALKGVLSLLPPRATMYLWGRLPEGVDDLEFGLRLVERGVALAPGRGFGPGGKGFVRIALVRPLEELLEAAKRIREALD,soluble
19,MSRYLITFDMDTNCLKDNYHGNNYTNAYSDIKTILARHGFENIQGSVYLGREGISEAHGTIAIQELTARFDWFYSCISNIKFYRLESDLNAQFIADGVYQAKQAFLQRVEQLRISLTEAGLSDEQINQVLEKQKFELESPNLKLN,not soluble
20,MSSDEQKPEVNGYWTSVKNFSSSAATSINNATTSAWNSEFAASTSATVKDFSTSATKSIGEAATSAWNSETASTATSAISEAAKNARSWYDSSSEENEELEPSGHGFRGGIAALSRNASHYVISTVGRSSNILNIFDKTNKSSLGNPRWWIRFDRPHGNVDFHHININKAVTGLKDPHIPLTPTTAKTIGVLGKVAEKANDVAPLLTTAAMIYEAYRVGQEVHKDMNHGTTRNTIKTLAATSGTYSSGSIGAYAGSVIGTSIFPGLGTIFGAVVGGIVGGHFGGHYSHVATENALNHVKWDVVTFVCDGCDEEYTWKKYQEIEGTCCTRFNNKRQDSVDYWFKKLETNHDF,not soluble
